PMC4275271, “Development and Characterization of a Novel Fusion Protein of a Mutated Granulocyte Colony-Stimulating Factor and Human Serum Albumin in Pichia pastoris” (PLoS ONE, 2014)

T1: recombinant human G-CSF receptor (rhG-CSFR), biotinylated (human, UniProt Q99062 25-627, biotin (biotinylated, site not stated))
T1 construct: human granulocyte colony-stimulating factor receptor
T1 sequence (looked up): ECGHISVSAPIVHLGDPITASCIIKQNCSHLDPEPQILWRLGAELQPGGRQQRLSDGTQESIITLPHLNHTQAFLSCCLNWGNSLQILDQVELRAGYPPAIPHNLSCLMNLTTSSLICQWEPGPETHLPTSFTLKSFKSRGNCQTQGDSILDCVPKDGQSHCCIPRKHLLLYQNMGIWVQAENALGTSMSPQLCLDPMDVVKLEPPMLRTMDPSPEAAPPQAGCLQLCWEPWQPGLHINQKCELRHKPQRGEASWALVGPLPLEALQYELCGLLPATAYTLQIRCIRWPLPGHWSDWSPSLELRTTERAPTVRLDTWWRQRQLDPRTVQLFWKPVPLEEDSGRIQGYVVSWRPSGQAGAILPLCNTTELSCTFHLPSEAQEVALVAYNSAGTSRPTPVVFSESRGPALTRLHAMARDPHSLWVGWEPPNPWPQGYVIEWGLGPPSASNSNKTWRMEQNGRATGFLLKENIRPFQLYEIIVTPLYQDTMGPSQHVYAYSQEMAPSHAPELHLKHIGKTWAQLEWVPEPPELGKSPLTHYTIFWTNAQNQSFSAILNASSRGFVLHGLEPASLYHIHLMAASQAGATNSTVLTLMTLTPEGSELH


Molecular target: T1, recombinant human G-CSF receptor …
Assay: BLI; biotinylated rhG-CSFR (15 µg/ml) on Streptavidin High Binding biosensors, Octet-QK; HMG, rhG-CSF standard or mG-CSF in solution; global fitting
Conditions: both partners purified

| Binder | Kd | koff | kon |
| --- | --- | --- | --- |
| Human G-CSF mutant (mG-CSF) (ligand, UniProt P09919-2 31-204, looked up, human granulocyte colony-stimulating factor with five substitutions; also called mutated G-CSF) APTYRASSLPQSFLLKSLEQVRKIQGDGAALQEKLCATYKLCHPEELVLLGHSLGIPWAPLSSCPSQALQLAGCLSQLHSGLFLYQGLLQALEGISPELGPTLDTLQLDVADFATTIWQQMEELGMAPALQPTQGAMPAFASAFQRRAGGVLVASHLQSFLEVSYRVLRHLAQP | 1.2 nM | 1.94e-05 s⁻¹ | 16200 M⁻¹ s⁻¹ |
| recombinant human G-CSF (rhG-CSF) standard (ligand, UniProt P09919-2 31-204, looked up, human granulocyte colony-stimulating factor, rhG-CSF standard of Amgen; Amgen's rhG-CSF is recalled to be the 174-residue mature form with an added N-terminal Met (filgrastim); also called recombinant hG-CSF standard; source: bought: Amgen, USA) TPLGPASSLPQSFLLKCLEQVRKIQGDGAALQEKLCATYKLCHPEELVLLGHSLGIPWAPLSSCPSQALQLAGCLSQLHSGLFLYQGLLQALEGISPELGPTLDTLQLDVADFATTIWQQMEELGMAPALQPTQGAMPAFASAFQRRAGGVLVASHLQSFLEVSYRVLRHLAQP | 1.97 nM | 2.24e-05 s⁻¹ | 11400 M⁻¹ s⁻¹ |
